Data as given in patent publication US20140072980A1 (Regeneron, published 2014).

Tests used:
[1] = target: IgG1 Fc*/Fc* monospecific antibody; experiment: flow cytometry sandwich: antibody displayed on CHO cells by CSCP ScFv*-FcγR, hFc block, detected with Alexa 488-labeled Ab2; signal needs both capture and detection
Experimental: (§1) Conversely, the Ab6-derived anti-Fc*-specific ScFv*-FcγR surface capture system was tested for its ability to detect and enrich for cells that produce bispecific antibodies. […] The Ab6-derived anti-Fc*-specific ScFv*-FcγR surface capture cell line was able to detect and distinguish the bispecific antibody (Fc/Fc*) over the Fc*/Fc* or Fc/Fc monospecific antibodies using the Fc-specific Ab2 as the detection molecule (Table 4). The FcγR surface capture cell line was not able to distinguish between the Fc/Fc*, Fc*/Fc*, and Fc/Fc IgG4 species.

[2] = target: IgG1 Fc/Fc monospecific antibody; experiment: as above
Experimental: as §1

[3] = target: IgG1 Fc/Fc* bispecific antibody; experiment: as above
Experimental: as §1

[4] = target: IgG4 Fc/Fc* bispecific antibody; experiment: flow cytometry sandwich: antibody displayed on CHO cells by CSCP FcγR, detected with labeled Ab2; signal needs both capture and detection
[5] = target: IgG4 Fc/Fc monospecific antibody; experiment: as above
[6] = target: IgG4 Fc*/Fc* monospecific antibody; experiment: as above
[7] = target: IgG1 Fc/Fc monospecific antibody; experiment: as above
[8] = target: IgG1 Fc/Fc* bispecific antibody; experiment: as above
human Fc* homodimer = target: T1, human Fc* homodimer (human); experiment: SPR (Biacore 2000), antibody captured on anti-mouse-Fc surface, Fc dimer injected, 1:1 fit
T1 construct: also called Fc*/Fc*; human ΔAdpFc polypeptide
Experimental: (§2) Measurements to determine binding affinities and kinetic constants were made on a Biacore 2000 instrument. Antibodies (each of Ab1-Ab8) were captured onto an anti-mouse-Fc sensor surface (Mab capture format), and human Fc (SEQ ID NO 26) homodimers, human Fc* homodimers (SEQ ID NO:42), or Fc/Fc* heterodimers were injected over the surface. Kinetic association (kₐ) and dissociation (kd) rate constants were determined by processing and fitting the data to a 1:1 binding model using Scrubber 2.0 curve fitting software.

[9] = target: IgG1 Fc*/Fc* monospecific antibody; experiment: flow cytometry sandwich: antibody displayed on CHO cells by CSCP FcγR, detected with FITC-labeled Ab6; signal needs both capture and detection
[10] = target: IgG1 Fc/Fc monospecific antibody; experiment: as above
[11] = target: IgG1 Fc/Fc* bispecific antibody; experiment: as above
[12] = target: IgG4 Fc/Fc* bispecific antibody; experiment: flow cytometry sandwich: antibody displayed on CHO cells by CSCP ScFv-FcγR, hFc block, detected with FITC-labeled Ab6; signal needs both capture and detection
Experimental: (§3) The Ab2-derived anti-Fc-specific ScFv-FcγR surface capture system was tested for its ability to detect and enrich for cells that produce bispecific antibodies. To assess the ability to detect bispecific antibodies, which harbor the 95R/435R-96F/436F substitution in one of the CH3 domains (designated Fc*), various antibodies were expressed in the Ab2-derived anti-Fc-specific ScFv-FcγR surface capture cell line, using hFc as the blocking molecule, and a FITC-labeled Ab6 anti-Fc* antibody (e.g., mAb with HC of SEQ ID NO:40, and LC of SEQ ID NO:41) as the detection molecule. The Ab2-derived anti-Fc-specific ScFv-FcγR surface capture cell line was able to detect and distinguish the bispecific antibody (Fc/Fc*) over any Fc*/Fc* or Fc/Fc monospecific antibodies using the Fc*-specific Ab6 as the detection molecule (Table 4). The wildtype FcγR surface capture cell line was not able to distinguish between the Fc/Fc*, Fc*/Fc*, and Fc/Fc IgG4 species, since FcγR is unable to bind, or binds at very low affinity to IgG4.

[13] = target: IgG4 Fc/Fc monospecific antibody; experiment: as above
Experimental: as §3

[14] = target: IgG4 Fc*/Fc* monospecific antibody; experiment: as above
Experimental: as §3

[15] = target: IgG1 Fc*/Fc* monospecific antibody; experiment: as above
Experimental: as §3

[16] = target: IgG1 Fc/Fc monospecific antibody; experiment: as above
Experimental: as §3

[17] = target: IgG1 Fc/Fc* bispecific antibody; experiment: as above
Experimental: as §3

human Fc homodimer = target: T2, human Fc homodimer (human, UniProt P01861 120-325 = IgG part); experiment: SPR (Biacore 2000), antibody captured on anti-mouse-Fc surface, Fc dimer injected
T2 construct: His 95 and Tyr 96 (IMGT) in CH3; also called Fc/Fc; hFc
Experimental: as §2

T2 sequence (P01861 other isoform, or with tags, fused parts or gaps limits assumed): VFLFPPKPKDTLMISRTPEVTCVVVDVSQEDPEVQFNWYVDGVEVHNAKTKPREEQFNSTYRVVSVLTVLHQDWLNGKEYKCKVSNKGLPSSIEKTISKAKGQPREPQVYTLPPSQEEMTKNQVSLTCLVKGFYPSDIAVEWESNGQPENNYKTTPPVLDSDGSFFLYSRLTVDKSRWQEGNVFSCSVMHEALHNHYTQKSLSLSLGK

B1: Ab2 (antibody, V domains shown)
VH: QLQQSGAELAKPGASVKMSCKASGYTFTNYWIHWEKQRPEQGLEWIGYINPNTGHTEYNQKFKDKATLTADRSSSTAYMQLSSLTSEDSAVYFCARTYSGSSHFDYWGQGTTL
VL: DIVMTQTPVSLPVSLGDQASISCRSSQSLVHNNGDTFLHWYLQKPGQSPKLLIYKVSNRFSGVPDRFSGSGSGTDFTLKISRVEAEDLGVYFCSQTTLIPRTFGGGTKLEI
notes: From Velocimmune mice, captured by anti-mouse-Fc in SPR; also called Fc-specific Ab2; Ab2 anti-Fc antibody
Mean Fluorescence Intensity (MFI) [1]: 10 MFI
Mean Fluorescence Intensity (MFI) [2]: 10 MFI
Mean Fluorescence Intensity (MFI) [3]: 150 MFI
Mean Fluorescence Intensity (MFI) [4]: 200 MFI
Mean Fluorescence Intensity (MFI) [5]: 200 MFI
Mean Fluorescence Intensity (MFI) [6]: 200 MFI
Mean Fluorescence Intensity (MFI) [7]: 350 MFI
Mean Fluorescence Intensity (MFI) [8]: 500 MFI

B2: Ab6 (antibody, mouse IgG2a, kappa, V domains shown)
VH: EVQLVESGGAIVKPGGSHRVSCEASGFTFSNAWMSWVRQAPGRGLEWVGRILSKTDGGTTDYAAPVKDRFTISRDDSKNMLFLQMDSLKIEDTAVYFCTTADFWSAYSSDYWGQGTLVTVSS
VL: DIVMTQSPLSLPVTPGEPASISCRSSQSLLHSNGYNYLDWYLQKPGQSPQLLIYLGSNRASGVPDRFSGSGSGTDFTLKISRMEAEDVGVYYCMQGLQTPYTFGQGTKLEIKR
notes: also called Fc*-specific Ab6; Ab6 anti-Fc* antibody
Kd (human Fc* homodimer): 679 pM
koff (human Fc* homodimer): 0.000593 s⁻¹
kon (human Fc* homodimer): 873000 M⁻¹ s⁻¹
t½ (human Fc* homodimer): 19 min
Mean Fluorescence Intensity (MFI) [9]: 200 MFI
Mean Fluorescence Intensity (MFI) [10]: 200 MFI
Mean Fluorescence Intensity (MFI) [11]: 200 MFI
Mean Fluorescence Intensity (MFI) [12]: 500 MFI
Mean Fluorescence Intensity (MFI) [13]: 15 MFI
Mean Fluorescence Intensity (MFI) [14]: 15 MFI
Mean Fluorescence Intensity (MFI) [15]: 15 MFI
Mean Fluorescence Intensity (MFI) [16]: 15 MFI
Mean Fluorescence Intensity (MFI) [17]: 500 MFI
binding result (human Fc homodimer): no binding
